# In patent US20220098307A1 (WUHAN YZY BIOPHARMA, published 2022):
# Positions count from the first letter of the chain named.
# T1: human CEA (human, UniProt P06731 35-685)
# T1 sequence: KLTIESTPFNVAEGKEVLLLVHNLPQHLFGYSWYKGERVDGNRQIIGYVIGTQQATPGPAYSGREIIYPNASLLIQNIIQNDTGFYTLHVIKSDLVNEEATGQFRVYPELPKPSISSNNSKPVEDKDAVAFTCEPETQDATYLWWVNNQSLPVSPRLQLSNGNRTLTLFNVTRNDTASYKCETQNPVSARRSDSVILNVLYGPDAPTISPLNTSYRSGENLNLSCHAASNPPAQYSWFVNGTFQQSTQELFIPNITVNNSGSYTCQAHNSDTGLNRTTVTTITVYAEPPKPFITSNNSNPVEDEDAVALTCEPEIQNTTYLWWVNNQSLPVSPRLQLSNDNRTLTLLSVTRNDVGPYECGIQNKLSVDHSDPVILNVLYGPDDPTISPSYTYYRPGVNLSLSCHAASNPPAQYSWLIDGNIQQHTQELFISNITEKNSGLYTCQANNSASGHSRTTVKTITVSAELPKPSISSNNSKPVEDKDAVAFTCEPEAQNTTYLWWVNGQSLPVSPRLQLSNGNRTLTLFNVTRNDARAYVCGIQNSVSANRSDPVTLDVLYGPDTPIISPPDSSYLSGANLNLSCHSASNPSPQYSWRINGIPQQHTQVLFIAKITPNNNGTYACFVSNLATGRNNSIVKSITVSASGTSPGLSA
# B1: M3IC-G2D (bispecific antibody)
# chain 1: EVKLDETGGGLVQPGRPMKLSCVASGFTFSDYWMNWVRQSPEKGLEWVAQIRNKPYNYETYYSDSVKGRFTISRDDSKSSVYLQMNNLRVEDMGIYYCTGSYYGMDYWGQGTSVTVSSASTKGPSVFPLAPSSKSTSGGTAALGCLVKDYFPEPVTVSWNSGALTSGVHTFPAVLQSSGLYSLSSVVTVPSSSLGTQTYICNVNHKPSNTKVDKKVEPKSCGGGGSGGGGSQVQLVESGGGVVQPGRSLRLSCAASGFTFSTYAMNWVRQAPGKGLEWVARIRSKYNNYATYYADSVKDRFTISRDDSKNTLYLQMNSLRAEDTAVYYCARHGNFGNSYVSWFAYWGQGTLVTVSSASVAAPSVFIFPPSDEQLKSGTASVVCLLNNFYPREAKVQWKVDNALQSGNSQESVTEQDSKDSTYSLSSTLTLSKADYEKHKVYACEVTHQGLSSPVTKSFNRGECDKTHTCPPCPAPPVAGPSVFLFPPKPKDTLMISRTPEVTCVVVDVSHEAPEVQFNWYVDGVEVHNAKTKPREEQFNSTFRVVSVLTVVHQDWLNGKEYKCKVSNKGLPAPIEKTISKTKGQPREPQVYTLPPCRDELTKNQVSLWCLVKGFYPSDIAVEWESNGQPENNYKTTPPVLDSDGSFFLYSKLTVDKSRWQQGNVFSCSVMHEALHNHYTQKSLSLSPGK
# chain 2: QTVVTQEPSLTVSPGGTVTLTCRSSTGAVTTSNYANWVQQKPGQAPRGLIGGTNKRAPGVPARFSGSLLGGKAALTLSGVQPEDEAEYYCALWYSNLWVFGGGTKVEIKSSASTKGPSVFPLAPSSKSTSGGTAALGCLVKDYFPEPVTVSWNSGALTSGVHTFPAVLQSSGLYSLSSVVTVPSSSLGTQTYICNVNHKPSNTKVDKKVEPKSC
# heavy: EVKLDETGGGLVQPGRPMKLSCVASGFTFSDYWMNWVRQSPEKGLEWVAQIRNKPYNYETYYSDSVKGRFTISRDDSKSSVYLQMNNLRVEDMGIYYCTGSYYGMDYWGQGTSVTVSSASTKGPSVFPLAPSSKSTSGGTAALGCLVKDYFPEPVTVSWNSGALTSGVHTFPAVLQSSGLYSLSSVVTVPSSSLGTQTYICNVNHKPSNTKVDKKVEPKSCDKTHTCPPCPAPPVAGPSVFLFPPKPKDTLMISRTPEVTCVVVDVSHEAPEVQFNWYVDGVEVHNAKTKPREEQFNSTFRVVSVLTVVHQDWLNGKEYKCKVSNKGLPAPIEKTISKTKGQPREPQVCTLPPSRDELTKNQVSLSCAVKGFYPSDIAVEWESNGQPENNYKTTPPVLDSDGSFFLVSKLTVDKSRWQQGNVFSCSVMHEALHNRFTQKSLSLSPGK
# light: DVVMTQTPLSLPVSLGDQASISCRSSQSLVHSNGNTYLRWYLQKPGQSPKVLIYKVSNRFSGVPDRFSGSGSGTDFTLKISRVEAEDLGVYFCSQSTHVPWTFGGGTKLEIKRTVAAPSVFIFPPSDEQLKSGTASVVCLLNNFYPREAKVQWKVDNALQSGNSQESVTEQDSKDSTYSLSSTLTLSKADYEKHKVYACEVTHQGLSSPVTKSFNRGEC
# notes: structure 3 isotype control; CH2 G2DCH2
# B2: M3IC-PG2 (bispecific antibody)
# chain 1: B1 chain 1 with C472P, A512D
# chain 2: B1 chain 2
# heavy: B1 heavy with C230P, A270D
# light: B1 light
# notes: structure 3 isotype control; CH2 PG2CH2
# B3: M3IC-GG2 (bispecific antibody)
# chain 1: B1 chain 1 with C472G, A512D
# chain 2: B1 chain 2
# heavy: B1 heavy with C230G, A270D
# light: B1 light
# notes: structure 3 isotype control; CH2 GG2CH2
# B4: M3IC-SG2 (bispecific antibody)
# chain 1: B1 chain 1 with C472S, A512D
# chain 2: B1 chain 2
# heavy: B1 heavy with C230S, A270D
# light: B1 light
# notes: structure 3 isotype control; CH2 SG2CH2
# Target: T1, human CEA
# Experiment: flow cytometry, human tumor cells (table of the CEA series)
# Excerpt: 1) Cell preparation: T cells isolated from CD3-positive human whole blood were used for a CD3 end affinity detection of multifunctional antibody molecule; positive tumor cells of corresponding antigen were used for detecting affinity of tumor antigen; for example, CD38-positive MM. 1S cells (purchased from the Cell Resource Center of Shanghai Institutes for Biological Sciences, Chinese Academy of Sciences) or RPMI 8226 cells (purchased from the Cell Resource Center of Shanghai Institutes for Biological Sciences, Chinese Academy of Sciences) were used for CD38 antigen detection, and PD-L1 positive H358 cells (purchased from the Cell Resource Center of Shanghai Institutes for Biological Sciences, Chinese Academy of Sciences) were used for PD-L1 antigen detection, and so on. The cells were resuspended with 1% FBS-PBS, adjusted to a density of 4×10⁶/ml, and 50 μl of cells were taken from each well, and then plated at 2×10⁵ per well. Cell plating was operated on ice
# 2) Addition of the antibody: according to the experimental design, the antibody was diluted gradually, and dilution of antibody was operated on ice. For example, the initial concentration of antibody for dilution was 3000 nM, and the antibody was diluted by 3 times with 11 concentration gradients. The diluted antibody was added to a cell well at 50 μl per well, mixed well, and shaked and incubated at 4° C. 1100 rpm/min for 2 h; after washing, the cells were resuspend in 1% FBS-PBS, and a diluted secondary antibody PE anti-human IgG FC (Biolegend, 409304) was added with a final concentration of 8 ug/ml and a volume of 50 μl/well. At the same time, a well only added with cells and secondary antibody was set as a control, the components were mixed well, and incubated under shaking at 1100 rpm/min at 4° C. for 1 h;
# 5) Data analysis: the data was analyzed by a flow analysis software FlowJo 7.6 thereby obtaining an average fluorescence intensity of the specific antibody concentration, plotted by a Graphpad Prism 5 with the antibody concentration (nM) as an abscissa and the average fluorescence intensity as an ordinate; the EC50 value was calculated by the method of One site—Specific binding, and the EC50 value indicated the cell affinity of the antibody to the corresponding target antigen.
row,Binder,binding result
1,B1,no binding
2,B2,no binding
3,B3,no binding
4,B4,no binding

# Target: T2, Human CD3ε (human, UniProt P07766 23-126)
# T2 construct: CD3 on T cells isolated from human whole blood
# Experiment: flow cytometry, human T cells
# Outline: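 First, cells were plated on ice at 2×10⁵ per well; second, antibody dilutions (top 3000 nM, 3-fold steps) were added for 2 h at 4° C; third, after washing, PE anti-human IgG Fc (final 8 ug/ml) was added for 1 h at 4° C. EC50 was then fitted from MFI versus concentration.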
row,Binder,EC50 [nM]
1,B1,607
2,B2,696
3,B3,609
4,B4,677
